One may read the Kd as the free concentration of one partner at which half of the binding sites on the other are occupied at equilibrium, for simple one-to-one binding. Read a high Kd as a looser complex.

The assay concerns the target Karyopherin-β2 (human) (UniProt Q92973). The assay is described as follows: ITC. Background: In ITC the heat of successive injections is recorded.
Chain of UniProt Q92973 (Q92973 9-898): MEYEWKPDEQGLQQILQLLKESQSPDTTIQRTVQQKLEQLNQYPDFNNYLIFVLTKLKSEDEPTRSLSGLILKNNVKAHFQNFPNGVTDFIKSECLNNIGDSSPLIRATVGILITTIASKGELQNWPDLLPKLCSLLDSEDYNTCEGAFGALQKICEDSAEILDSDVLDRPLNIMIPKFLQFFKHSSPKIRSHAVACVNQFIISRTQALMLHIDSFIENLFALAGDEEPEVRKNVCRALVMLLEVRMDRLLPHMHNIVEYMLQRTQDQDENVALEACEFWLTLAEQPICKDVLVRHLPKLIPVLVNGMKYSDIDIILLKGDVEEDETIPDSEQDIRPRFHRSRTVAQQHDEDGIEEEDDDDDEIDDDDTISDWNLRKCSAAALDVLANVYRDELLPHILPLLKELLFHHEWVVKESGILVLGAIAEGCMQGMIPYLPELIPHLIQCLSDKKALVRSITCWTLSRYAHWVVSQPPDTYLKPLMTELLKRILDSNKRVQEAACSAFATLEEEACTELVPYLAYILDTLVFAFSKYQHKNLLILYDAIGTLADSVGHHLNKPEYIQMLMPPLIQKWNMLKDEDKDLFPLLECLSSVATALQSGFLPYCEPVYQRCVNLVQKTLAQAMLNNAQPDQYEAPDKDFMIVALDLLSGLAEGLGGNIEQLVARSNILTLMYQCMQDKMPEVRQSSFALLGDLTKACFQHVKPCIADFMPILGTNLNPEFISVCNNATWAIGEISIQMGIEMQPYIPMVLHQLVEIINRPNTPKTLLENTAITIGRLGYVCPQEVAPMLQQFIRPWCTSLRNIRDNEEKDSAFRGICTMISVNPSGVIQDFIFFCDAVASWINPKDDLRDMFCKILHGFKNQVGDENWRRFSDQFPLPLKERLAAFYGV
In the case of “MBP-H3 Tail(1–47) K18A (from UniProt P68431 2-48) (domain or fragment)”, the Kd was 120 nM. As for “MBP-H3 Tail(1–47) K23A (from UniProt P68431 2-48) (domain or fragment)”, the figure is 148 nM; as for “MBP-H3 Tail(1–47) K23A, R26A, K27A (from UniProt P68431 2-48) (domain or fragment)”, 119 nM; as for “MBP-H3 Tail(1–47) K27A (from UniProt P68431 2-48) (domain or fragment)”, 133 nM. In turn, “MBP-H3 Tail(1–47) R17A (from UniProt P68431 2-48) (domain or fragment)” yielded a dissociation constant (Kd) of 389 nM. For “MBP-H3 Tail(1–47) R26A (from UniProt P68431 2-48) (domain or fragment)”, the equilibrium dissociation constant (Kd) worked out at 122 nM.

The substance “MBP-H3 Tail(1–47) wild-type (from UniProt P68431 2-48) (domain or fragment)” came in with a dissociation constant (Kd) of 77.1 nM. Against the preceding substance, the Kd is about 1.6-fold lower.
